Data: article PMC6294489, “Structural basis for receptor-regulated SMAD recognition by MAN1” (Nucleic Acids Research, 2018)

B1: Trx-MAN1(762–911)-SDED (domain or fragment, human, UniProt Q9Y2U8 762-911, looked up)
chain: SKVWQGQAFHLDRRNSPPNSLTPCLKIRNMFDPVMEIGDQWHLAIQEAILEKCSDNDGIVHIAVDKNSREGCVYVKCLSPEYAGKAFKALHGSWFDGKLVTVKYLRLDRYHHRFPQALTSNTPLKPSNKHMNSMSHLRLRTGLTNSQGSS
notes: MAN1, human, residues 762–911 (ULM, UHM domain and C-terminal disordered region); source: E. coli Rosetta (DE3), purified (Ni-NTA, HRV3C protease, MonoQ); not shown: His tag, N-terminal, cleaved; Trx, N-terminal, kept; SDED (Ser-Asp-Glu-Asp), C-terminal, kept
B2: Trx-MAN1(762–890)-SDED (domain or fragment, human, UniProt Q9Y2U8 762-890, looked up)
chain: SKVWQGQAFHLDRRNSPPNSLTPCLKIRNMFDPVMEIGDQWHLAIQEAILEKCSDNDGIVHIAVDKNSREGCVYVKCLSPEYAGKAFKALHGSWFDGKLVTVKYLRLDRYHHRFPQALTSNTPLKPSNK
notes: MAN1, human, residues 762–890 (ULM and UHM domain); Layout: His-tag, HRV3C site, Trx, Gly-Ser, MAN1, Ser-Asp-Glu-Asp; His tag cut off with HRV3C; source: E. coli Rosetta (DE3), purified (Ni-NTA, HRV3C protease, MonoQ); not shown: His tag, N-terminal, cleaved; Trx, N-terminal, kept; SDED (Ser-Asp-Glu-Asp), C-terminal, kept

Columns and labels:
SMAD1C-2E [1] = target: T1, SMAD1C-2E (human, UniProt Q15797-1 259-465, S463E | S465E); assay: thermal shift assay; SMAD1C-2E or SMAD2C-2E (10 μM) with Trx-MAN1(762–911)-SDED (10 μM), SYPRO Orange; 10 mM Tris–HCl pH 9.0, 200 mM NaCl, 1 mM TCEP; 20 to 95°C; conditions: both partners purified
T1 construct: SMAD1, human, MH2 domain, residues 259–465 with S463E and S465E; Crystals: from pGEX-6P-SMAD1C-2E (GST cleaved); treated as the same molecule; also called phosphorylated-state mimic of the MH2 domain of SMAD1; source: E. coli BL21(DE3) with pG-KJE8; for ITC and thermal shift purified (Ni-NTA, HRV3C protease, MonoQ); not shown: GST, N-terminal, cleaved
T1 sequence (Q15797 259-465 S463E/S465E): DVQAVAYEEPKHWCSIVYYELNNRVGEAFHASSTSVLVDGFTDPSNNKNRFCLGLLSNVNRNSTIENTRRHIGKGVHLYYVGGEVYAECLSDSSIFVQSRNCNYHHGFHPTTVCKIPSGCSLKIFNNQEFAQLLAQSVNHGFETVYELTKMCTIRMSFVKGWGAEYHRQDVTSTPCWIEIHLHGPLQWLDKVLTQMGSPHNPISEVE

SMAD2C-2E (human) = assay: ITC; Trx-MAN1(762–890)-SDED (255 μM) injected into SMAD1C-2E (20 μM) or SMAD2C-2E (25 μM); 20°C; 100 mM Na2HPO4 pH 8.0, 150 mM NaCl, 1 mM TCEP; one set of sites model
SMAD1C-2E [2] = target: T1, SMAD1C-2E; assay: as above; conditions: both partners purified
[3] = target: T2, His-GST-SMAD1C-2E H364Y-F366W (human, UniProt Q15797-1 259-465, H364Y | F366W | S463E | S465E); assay: pull-down; His-GST-SMAD1C-2E, its mutant or His-GST-SMAD2C-2E (2.5 μM) on Ni-NTA resin, Trx-MAN1(762–890)-SDED (5 μM; 5, 10 and 20 μM in the comparison of SMAD1 with SMAD2); 50 mM Tris–HCl pH 9.0, 200 mM NaCl, 10 mM imidazole, 10% glycerol, 1 mM TCEP; conditions: both partners purified
T2 construct: SMAD1, human, MH2 domain, residues 259–465 with S463E, S465E, H364Y and F366W; also called H364Y-F366W double mutant of SMAD1; source: E. coli BL21(DE3) with pG-KJE8, purified (Ni-NTA, MonoQ); not shown: His tag, N-terminal, kept; GST, N-terminal, kept
T2 sequence (Q15797 259-465 H364Y/F366W/S463E/S465E): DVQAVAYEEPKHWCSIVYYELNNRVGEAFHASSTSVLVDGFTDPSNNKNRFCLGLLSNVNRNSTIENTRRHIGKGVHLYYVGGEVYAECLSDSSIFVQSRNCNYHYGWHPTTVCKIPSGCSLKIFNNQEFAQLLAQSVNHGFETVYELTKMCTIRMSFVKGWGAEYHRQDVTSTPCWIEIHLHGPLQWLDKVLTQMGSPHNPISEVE

Binder	Tm of SMAD1C-2E with the binder (48.5°C without) (SMAD1C-2E [1])	Kd (SMAD2C-2E (human))	Kd (SMAD1C-2E [2])	binding result [3]
B1	50.5 °C			
B2		3300 nM	350 nM	binds
